This note sets out measurements from patent US20240084004A1.

Experiment [1] deals with T1, canine PD-1 (canine Programmed Death Receptor 1) antigen (canine).
T1 sequence: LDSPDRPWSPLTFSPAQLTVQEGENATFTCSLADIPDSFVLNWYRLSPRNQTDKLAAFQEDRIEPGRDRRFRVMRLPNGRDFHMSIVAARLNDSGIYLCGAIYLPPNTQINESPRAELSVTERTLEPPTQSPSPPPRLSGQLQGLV
The experiment can be described thus: SPR (Biacore T200), canine PD-1 immobilized by amine coupling, antibody as analyte, 1:1 fit.

Experiment [2] shares this target. Kind of experiment: SPR (Biacore T200), canine PD-1 immobilized by amine coupling, antibody as analyte, 1:1 fit; off-rate below detection limit.

B1: Murine 3B6 (mouse anti-canine PD-1 monoclonal antibody) (antibody, V domains shown)
VH: QIQLVQSGPELKKPGETVKISCKASGYTFTTYGMSWVKQAPGKGLKWMGWINIYSGIPTYADDFKGRFAFSLETSASTAYLQIDNLKNEDTATYFCARFDGPDYWGQGTTLTVSS
VL: DIVMTQSPSSLAVSVGRKVTMSCKSSQSLLNSVNQKNYLAWYQQKPGQSPKVLVYFASARVSGVPDRFIGSGSGTDFTLAISSVQAEDLTTYFCQQYFSTPLTFGAGTKLELK
In experiment [1], B1 displayed a Kd of 2 nM, a koff of 3.4e-05 s⁻¹ and a kon of 18000 M⁻¹ s⁻¹.

B2: Murine 2H9 (mouse anti-canine PD-1 monoclonal antibody) (antibody, V domains shown)
VH: EVQLQQSVAELVRPGASVKLSCTASGFNIKNTYMHWIKQRPEQGLEWIGRIAPANVDTKYAPKFQGKATITADTSSNTAYMQLSTLTSEDTAIYYCVLIYYDYDGDIDVWGTGTTVTVSS
VL: DIQMNQSPSSLSASLGDTITITCHASQNINVWLSWYQQRPGNIPKLLIYKASHLHTGVPSRFSGSGSGTGFTLTISSLQPEDIATYYCQQGQSWPLTFGAGTKLELK
Turning to B2, in experiment [1], the kon amounted to 23000 M⁻¹ s⁻¹. In experiment [2], the Kd was under 0.2 nM and the koff is under 5e-06 s⁻¹.
